Biological target: the molecule itself
Assay: SDS-PAGE; recombinant CTRP3 run on SDS-polyacrylamide gels, stained with Coomassie; band at <100 kDa read as a trimer

B1: C1q/TNF-related protein 3 (CTRP3), recombinant (natural protein, human, UniProt Q9BXJ4 23-246, looked up)
chain: QDEYMESPQTGGLPPDCSKCCHGDYSFRGYQGPPGPPGPPGIPGNHGNNGNNGATGHEGAKGEKGDKGDLGPRGERGQHGPKGEKGYPGIPPELQIAFMASLATHFSNQNSGIIFSSVETNIGNFFDVMTGRFGAPVSGVYFFTFSMMKHEDVEEVYVYLMHNGNTVFSMYSYEMKGKSDTSSNHAVLKLAKGDEVWLRMGNGALHGDHQRFSTFAGFLLFETK
notes: C1q/TNF-related protein 3 (CTRP3), human, recombinant; also called C1q/Tumor Necrosis Factor-Related Protein 3; recombinant human CTRP3; source: baculovirus expression system in insect H5 cells
stoichiometry N: 3

Source: PMC8391708, “Anti-Inflammatory Effects of C1q/Tumor Necrosis Factor-Related Protein 3 (CTRP3) in Endothelial Cells” (Cells, 2021)
